Target: the molecule itself
Assay: native MS

B1: S-RASSF5 SARAH (domain or fragment)
chain: GEVEWDAFSIPELQNFLTILEKEEQDKIQQVQKKYDKFRQKLEEALRESQGKPG
binding result: binds

B2: MST1 SARAHmyc (domain or fragment)
chain: DYEFLKSWTVEDLQKRLLALDPMMEQEIEEIRQKYQSKRQPILDAIEAKKRRQQNF
binding result: binds

— article PMC4221134 (Advances in biological regulation, 2013)
